Reference: patent publication US20230126400A1

Key:
Details in all cases: remark: other sources report otherwise
[1] = target: human MS4A4A (human), Q96JQ5; test: flow cytometry (anti-mouse IgG Fc-APC) on U937 cells transfected with human MS4A4A (Plate B); untransfected U937 cells (Plate A): mean 313
[2] = target: human MS4A4A (human), Q96JQ5; test: functional affinity, FACS titration on stably transfected 300.19 cells
[3] = target: human MS4A4A (human), Q96JQ5; test: flow cytometry (anti-mouse IgG Fc-APC) on 300.19 cells transfected with human MS4A4A (Plate D); untransfected 300.19 cells (Plate C): mean 122

Mean : APC-A [1] | Kd [2] | Mean : APC-A [3] | Binder
7370 | 14 nM | 3600 | anti-MS4A4A antibody 4A-21 (murine) (antibody, IgG1, V domains shown) VH: QIQLVQSGPELKKPGETVKISCKASGYIFTSYGLSWVKQTPGKGLKWMGWINTYSGVPTYANDFKGRFAFSLETSASTTYLRINNLKNDDTATYFCARSLVDYWGQGTPLTVSS VL: not shown
– | 8.7 nM | – | anti-MS4A4A antibody 4A-21, huIgG1 chimera (antibody, V domains shown) VH: QIQLVQSGPELKKPGETVKISCKASGYIFTSYGLSWVKQTPGKGLKWMGWINTYSGVPTYANDFKGRFAFSLETSASTTYLRINNLKNDDTATYFCARSLVDYWGQGTPLTVSS VL: not shown
